The values that follow are results of earlier work, collected in PMC3139910.

As usually defined, the Kd is a measure of binding affinity in units of concentration.

In the series the target is CCR7 (Homo sapiens) (UniProt P32248).
UniProt P32248, sequence (P32248 25-378): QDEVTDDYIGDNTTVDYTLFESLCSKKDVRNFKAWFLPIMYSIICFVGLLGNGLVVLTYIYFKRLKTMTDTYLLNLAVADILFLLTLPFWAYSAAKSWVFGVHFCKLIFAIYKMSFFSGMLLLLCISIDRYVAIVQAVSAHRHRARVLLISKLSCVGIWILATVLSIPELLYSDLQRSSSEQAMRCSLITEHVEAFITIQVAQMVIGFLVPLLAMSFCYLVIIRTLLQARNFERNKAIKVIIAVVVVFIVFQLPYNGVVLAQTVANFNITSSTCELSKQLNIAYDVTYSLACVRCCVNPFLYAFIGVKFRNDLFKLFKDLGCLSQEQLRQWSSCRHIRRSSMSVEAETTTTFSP

Turning to CCL21 (from UniProt O00585), the Kd was 5 nM.
